{"source": "patent US10772909B2", "about": "“System and method for insulin-mimetic of cartilage, bone, or osteochondral repair and piezoelectric composite scaffold” (New Jersey Institute of Technology, priority 2016, dated 2020)", "test_system": "PBMCs", "assay": "PBMC proliferation assay (3H-TdR incorporation)", "assay_type": "cell-based, human", "details": "positive control, 1% PHA", "excerpt": "Peripheral blood was obtained from four healthy subjects, two males and two females (ages 18-30 years old). Peripheral blood mononuclear cells (PBMCs) were isolated by Ficoll Hypaque (Sigma-Aldrich) gradient separation. Human MSCs were obtained from human bone marrow aspirates (Lonza, Walkersville, Md., USA) from four healthy subjects, two males and two females, ages 18-30 years old, according to previously published protocols and cryopreserved before use. Human MSCs were characterized for the expression of surface markers CD29, CD44, CD73, CD90, and CD105 and lack expression of CD14, CD34 and CD45 as determined by flow cytometry. The differentiation potency was determined by the differentiation of MSCs into osteoblasts, adipocytes and chondrocytes in vitro [32,33]. […]\nThe cytotoxicity of Na2WO4 was examined using PBMCs. Cell proliferation was measured using tritiated thymidine (^3H-TdR) incorporation as described in Kapoor et al.. […]\nAfter 16 h, the cells were harvested on glass fiber filters (Cambridge Technology, Inc.) using a cell harvester (EMD Millipore). […] The radioactive incorporation of ^3H-TdR in the cells was measured using a liquid scintillation counter (Beckman; Fullerton, Calif., USA). The stimulation index (SI) was calculated as disintegration per minute (dpm) of treated group/dpm of unstimulated PBMCs (0 mM)."}
{"substance": "phytohemagglutinin [PHA]", "values": [{"measurement": "stimulation index (SI)", "value": "11.5±1.2"}]}
